# Patent US20260078182A1
# Molecular target: CCR4 (human) (UniProt P51679)
# Assay: cell-based or functional assay
# Sequence of UniProt P51679 (P51679 whole entry): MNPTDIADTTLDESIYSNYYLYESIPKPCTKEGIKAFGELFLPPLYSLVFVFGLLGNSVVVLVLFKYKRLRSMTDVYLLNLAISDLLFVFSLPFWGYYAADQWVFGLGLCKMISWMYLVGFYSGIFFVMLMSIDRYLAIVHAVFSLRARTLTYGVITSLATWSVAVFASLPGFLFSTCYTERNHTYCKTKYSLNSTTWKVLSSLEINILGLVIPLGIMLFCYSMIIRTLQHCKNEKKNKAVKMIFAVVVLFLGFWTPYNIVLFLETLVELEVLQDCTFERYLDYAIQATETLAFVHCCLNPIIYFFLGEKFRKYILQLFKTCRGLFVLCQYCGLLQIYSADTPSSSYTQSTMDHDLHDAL
substance,measurement,value
mogamulizumab (antibody),"EC50 (pM), cytotoxicity of the negative control antibody against MT-2 cells expressing CCR4 with T-LAK effector cells (calcein release)",1140 pM
same,"Emax (%), cytotoxicity of the negative control antibody against MT-2 cells expressing CCR4 with T-LAK effector cells (calcein release)",8.5%
